The test system of one series is H3K36me3. In words: H3K36 demethylase activity of KDM4A variants in transfected cells (immunofluorescence). It is filed as cell-based. Also noted: key: + indicates active; − indicates inactive; +/− indicates partial acitivty. The note with it: KDM4A mutations. As for the experimental part:
The indicated NHF-tagged KDM4A deletion constructs were transfected into RPE cells grown on coverslips in 10 cm dishes using X-tremeGENE 9™ DNA transfection reagent (Roche). H3K36me3 and subcellular localization were assayed by examining transfected cells (positive for HA staining; HA.11 Covance) following fixation in 3.7% PFA in PBS (Whetstine et al., 2006).
All immunofluorescence experiments were performed as in (Black et al., 2013). For the localization experiment a minimum of 50 cells were blinded and scored. For the catalytic activity, cells overexpressing a high level of KDM4A WT or SNP-A482 were analyzed in a non quantitative manner.

In a further series the test system is H3K9me3. In words: H3K9 demethylase activity of KDM4 variants in transfected cells. Details: key: + indicates active; − indicates inactive; +/− indicates partial acitivty. The conditions noted are these: KDM4A mutations. The format is cell-based.

Numbering of substitutions follows the chain as printed. In names and notes the source's numbering stands.

We go through 16 molecules from patent US20160113911A1, “METHODS AND COMPOSITIONS FOR THE TREATMENT OF CANCER” (THE GENERAL HOSPITAL CORPORATION, priority 2013, published 2016).

B1: 2A-A236V: KDM4A mutation (protein)
chain: MASESETLNPSARIMTFYPTMEEFRNFSRYIAYIESQGAHRAGLAKVVPPKEWKPRASYDDIDDLVIPAPIQQLVTGQSGLFTQYNIQKKAMTVREFRKIANSDKYCTPRYSEFEELERKYWKNLTFNPPIYGADVNGTLYEKHVDEWNIGRLRTILDLVEKESGITIEGVNTPYLYFGMWKTSFAWHTEDMDLYSINYLHFGEPKSWYSVPPEHGKRLERLAKGFFPGSAQSCEVFLRHKMTLISPLMLKKYGIPFDKVTQEAGEFMITFPYGYHAGFNHGFNCAESTNFATRRWIEYGKQAVLCSCRKDMVKISMDVFVRKFQPERYKLWKAGKDNTVIDHTLPTPEAAEFLKESELPPRAGNEEECPEEDMEGVEDGEEGDLKTSLAKHRIGTKRHRVCLEIPQEVSQSELFPKEDLSSEQYEMTECPAALAPVRPTHSSVRQVEDGLTFPDYSDSTEVKFEELKNVKLEEEDEEEEQAAAALDLSVNPASVGGRLVFSGSKKKSSSSLGSGSSRDSISSDSETSEPLSCRAQGQTGVLTVHSYAKGDGRVTVGEPCTRKKGSAARSFSERELAEVADEYMFSLEENKKSKGRRQPLSKLPRHHPLVLQECVSDDETSEQLTPEEEAEETEAWAKPLSQLWQNRPPNFEAEKEFNETMAQQAPHCAVCMIFQTYHQVEFGGFNQNCGNASDLAPQKQRTKPLIPEMCFTSTGCSTDINLSTPYLEEDGTSILVSCKKCSVRVHASCYGVPPAKASEDWMCSRCSANALEEDCCLCSLRGGALQRANDDRWVHVSCAVAILEARFVNIAERSPVDVSKIPLPRFKLKCIFCKKRRKRTAGCCVQCSHGRCPTAFHVSCAQAAGVMMQPDDWPFVVFITCFRHKIPNLERAKGALQSITAGQKVISKHKNGRFYQCEVVRLTTETFYEVNFDDGSFSDNLYPEDIVSQDCLQFGPPAEGEVVQVRWTDGQVYGAKFVASHPIQMYQVEFEDGSQLVVKRDDVYTLDEELPKRVKSRLSVASDMRFNEIFTEKEVKQEKKRQRVINSRYREDYIEPALYRAIME
On to B1, for which the “H3k36 Demethylase Activity” value in the series on H3K36me3 is recorded as “+”. Moreover, the “H3k9 Demethylase Activity” value with H3K9me3 is “+”.

B2: 2A-P348L: KDM4A mutation (protein)
chain: B1 chain with V236A, P348L
Consider B2, for which the “H3k36 Demethylase Activity” value with H3K36me3 is listed as “+”. In addition, in the series with H3K9me3, the “H3k9 Demethylase Activity” value is “+”.

B3: 2A-R498H: KDM4A mutation (protein)
chain: B1 chain with V236A, R498H
For B3, the “H3k36 Demethylase Activity” value with H3K36me3 is given as “+”. For the same molecule, the “H3k9 Demethylase Activity” value in the series with H3K9me3 was “+”.

B4: 2A-P326T: KDM4A mutation (protein)
chain: B1 chain with V236A, P326T
Consider B4, for which the “H3k36 Demethylase Activity” value in the series with H3K36me3 was “+”. In the series on H3K9me3, the “H3k9 Demethylase Activity” value was “+”.

B5: 2A-G376V: KDM4A mutation (protein)
chain: B1 chain with V236A, G376V
With B5, the “H3k36 Demethylase Activity” value in the series with H3K36me3 is reported as “+”. Also, the “H3k9 Demethylase Activity” value with H3K9me3 is “+”.

B6: 2A-R400Q: KDM4A mutation (protein)
chain: B1 chain with V236A, R400Q
Turning to B6, in the series with H3K36me3, the “H3k36 Demethylase Activity” value is on record as “+”. Moreover, the “H3k9 Demethylase Activity” value with H3K9me3 is “+”.

B7: 2A-G278S: KDM4A mutation (protein)
chain: B1 chain with V236A, G278S
Consider B7, for which the “H3k36 Demethylase Activity” value with H3K36me3 was “−”. In addition, the “H3k9 Demethylase Activity” value in the series on H3K9me3 is listed as “−”.

B8: 2A-E426K: KDM4A mutation (protein)
chain: B1 chain with V236A, E426K
In the case of B8, the “H3k36 Demethylase Activity” value in the series with H3K36me3 is “+”. In the series on H3K9me3, the “H3k9 Demethylase Activity” value was “+”.

B9: 2A-E368K: KDM4A mutation (protein)
chain: B1 chain with V236A, E368K
Turning to B9, the “H3k36 Demethylase Activity” value with H3K36me3 was “+”. The “H3k9 Demethylase Activity” value with H3K9me3 is “+”.

B10: 2A-V490M: KDM4A mutation (protein)
chain: B1 chain with V236A, V490M
On to B10, for which, in the series with H3K36me3, the “H3k36 Demethylase Activity” value was “+”. Moreover, in the series with H3K9me3, the “H3k9 Demethylase Activity” value was “+”.

B11: 2A-V319M: KDM4A mutation (protein)
chain: B1 chain with V236A, V319M
With B11, the “H3k36 Demethylase Activity” value in the series with H3K36me3 was “+”. Moreover, the “H3k9 Demethylase Activity” value in the series on H3K9me3 is recorded as “+”.

B12: 2A-E558Q: KDM4A mutation (protein)
chain: B1 chain with V236A, E558Q
Regarding B12, in the series on H3K36me3, the “H3k36 Demethylase Activity” value is “+”. Moreover, in the series with H3K9me3, the “H3k9 Demethylase Activity” value is reported as “+”.

B13: 2A-T289I: KDM4A mutation (protein)
chain: B1 chain with V236A, T289I
For the molecule B13, the “H3k36 Demethylase Activity” value in the series with H3K36me3 is “−”. For the same molecule, in the series on H3K9me3, the “H3k9 Demethylase Activity” value was “+/−”.

B14: 2A-D524V: KDM4A mutation (protein)
chain: B1 chain with V236A, D524V
As to B14, the “H3k36 Demethylase Activity” value with H3K36me3 was “+”. Also, the “H3k9 Demethylase Activity” value with H3K9me3 is “+”.

B15: 2A-R239H: KDM4A mutation (protein)
chain: B1 chain with V236A, R239H
On to B15, for which, in the series on H3K36me3, the “H3k36 Demethylase Activity” value was “+/−”. For the same molecule, the “H3k9 Demethylase Activity” value in the series with H3K9me3 is on record as “+/−”.

B16: 2A-V743I*: KDM4A mutation (protein, UniProt O75164 2-1064, looked up, variant V743I)
Lysine-specific demethylase 4A: ASESETLNPSARIMTFYPTMEEFRNFSRYIAYIESQGAHRAGLAKVVPPKEWKPRASYDDIDDLVIPAPIQQLVTGQSGLFTQYNIQKKAMTVREFRKIANSDKYCTPRYSEFEELERKYWKNLTFNPPIYGADVNGTLYEKHVDEWNIGRLRTILDLVEKESGITIEGVNTPYLYFGMWKTSFAWHTEDMDLYSINYLHFGEPKSWYSVPPEHGKRLERLAKGFFPGSAQSCEAFLRHKMTLISPLMLKKYGIPFDKVTQEAGEFMITFPYGYHAGFNHGFNCAESTNFATRRWIEYGKQAVLCSCRKDMVKISMDVFVRKFQPERYKLWKAGKDNTVIDHTLPTPEAAEFLKESELPPRAGNEEECPEEDMEGVEDGEEGDLKTSLAKHRIGTKRHRVCLEIPQEVSQSELFPKEDLSSEQYEMTECPAALAPVRPTHSSVRQVEDGLTFPDYSDSTEVKFEELKNVKLEEEDEEEEQAAAALDLSVNPASVGGRLVFSGSKKKSSSSLGSGSSRDSISSDSETSEPLSCRAQGQTGVLTVHSYAKGDGRVTVGEPCTRKKGSAARSFSERELAEVADEYMFSLEENKKSKGRRQPLSKLPRHHPLVLQECVSDDETSEQLTPEEEAEETEAWAKPLSQLWQNRPPNFEAEKEFNETMAQQAPHCAVCMIFQTYHQVEFGGFNQNCGNASDLAPQKQRTKPLIPEMCFTSTGCSTDINLSTPYLEEDGTSILVSCKKCSIRVHASCYGVPPAKASEDWMCSRCSANALEEDCCLCSLRGGALQRANDDRWVHVSCAVAILEARFVNIAERSPVDVSKIPLPRFKLKCIFCKKRRKRTAGCCVQCSHGRCPTAFHVSCAQAAGVMMQPDDWPFVVFITCFRHKIPNLERAKGALQSITAGQKVISKHKNGRFYQCEVVRLTTETFYEVNFDDGSFSDNLYPEDIVSQDCLQFGPPAEGEVVQVRWTDGQVYGAKFVASHPIQMYQVEFEDGSQLVVKRDDVYTLDEELPKRVKSRLSVASDMRFNEIFTEKEVKQEKKRQRVINSRYREDYIEPALYRAIME
Turning to B16, the “H3k36 Demethylase Activity” value in the series with H3K36me3 is “+”. Also, in the series on H3K9me3, the “H3k9 Demethylase Activity” value is “+”.
